Measured values from the Human Domainome abundance scans (Beltran et al. 2025).
± gives the uncertainty stated by the source.

B1: POU domain, class 5, transcription factor 1, residues 134 to 212; numbered along this chain, Q01860 (parent)
chain: EESQDIKALQKELEQFAKLLKQKRITLGYTQADVGLTLGVLFGKVFSQTTICRFEALQLSFKNMCKLRPLLQKWVEEAD

Variants of: B1
Experiment: abundance fitness (aPCA) (normalised: wild type 0, dead -1); higher = more abundant; growth selection in yeast, the domain comes from the species named
Conditions: Homo sapiens

EESQDIKALQKELTQFAKLLKQKRITLGYTQADVGLTLGVLFGKVFSQTTICRFEALQLSFKNMCKLRPLLQKWVEEAD [E14T] and EESQDIKALQKELDQFAKLLKQKRITLGYTQADVGLTLGVLFGKVFSQTTICRFEALQLSFKNMCKLRPLLQKWVEEAD [E14D] are within error of each other in abundance fitness: -0.352 ± 0.16 for the first, -0.533 ± 0.39 for the second.

EESQDIKALQKELIQFAKLLKQKRITLGYTQADVGLTLGVLFGKVFSQTTICRFEALQLSFKNMCKLRPLLQKWVEEAD [E14I] and EESQDIKALQKELGQFAKLLKQKRITLGYTQADVGLTLGVLFGKVFSQTTICRFEALQLSFKNMCKLRPLLQKWVEEAD [E14G] are within error of each other in abundance fitness: 0.14 ± 0.15 for the first, -0.033 ± 0.13 for the second.

EESQDIKALQKELQQFAKLLKQKRITLGYTQADVGLTLGVLFGKVFSQTTICRFEALQLSFKNMCKLRPLLQKWVEEAD [E14Q] and EESQDIKALQKELFQFAKLLKQKRITLGYTQADVGLTLGVLFGKVFSQTTICRFEALQLSFKNMCKLRPLLQKWVEEAD [E14F] are within error of each other in abundance fitness: -0.05 ± 0.14 for the first, -0.056 ± 0.14 for the second.

EESQDIKALQKELCQFAKLLKQKRITLGYTQADVGLTLGVLFGKVFSQTTICRFEALQLSFKNMCKLRPLLQKWVEEAD [E14C] and EESQDIKALQKELWQFAKLLKQKRITLGYTQADVGLTLGVLFGKVFSQTTICRFEALQLSFKNMCKLRPLLQKWVEEAD [E14W] are within error of each other in abundance fitness: -0.476 ± 0.24 for the first, -0.367 ± 0.15 for the second.

EESQDIKALQKELMQFAKLLKQKRITLGYTQADVGLTLGVLFGKVFSQTTICRFEALQLSFKNMCKLRPLLQKWVEEAD [E14M] and EESQDIKALQKELLQFAKLLKQKRITLGYTQADVGLTLGVLFGKVFSQTTICRFEALQLSFKNMCKLRPLLQKWVEEAD [E14L] are within error of each other in abundance fitness: -0.307 ± 0.22 for the first, -0.168 ± 0.11 for the second.

EESQDIKALQKELYQFAKLLKQKRITLGYTQADVGLTLGVLFGKVFSQTTICRFEALQLSFKNMCKLRPLLQKWVEEAD [E14Y] and EESQDIKALQKELRQFAKLLKQKRITLGYTQADVGLTLGVLFGKVFSQTTICRFEALQLSFKNMCKLRPLLQKWVEEAD [E14R] are within error of each other in abundance fitness: 0.076 ± 0.2 for the first, 0.063 ± 0.081 for the second.

EESQDIKALQKELSQFAKLLKQKRITLGYTQADVGLTLGVLFGKVFSQTTICRFEALQLSFKNMCKLRPLLQKWVEEAD [E14S] and EESQDIKALQKELPQFAKLLKQKRITLGYTQADVGLTLGVLFGKVFSQTTICRFEALQLSFKNMCKLRPLLQKWVEEAD [E14P] are within error of each other in abundance fitness: -0.358 ± 0.13 for the first, -0.613 ± 0.29 for the second.

EESQDIKALQKELHQFAKLLKQKRITLGYTQADVGLTLGVLFGKVFSQTTICRFEALQLSFKNMCKLRPLLQKWVEEAD [E14H] and EESQDIKALQKELAQFAKLLKQKRITLGYTQADVGLTLGVLFGKVFSQTTICRFEALQLSFKNMCKLRPLLQKWVEEAD [E14A] are within error of each other in abundance fitness: -0.037 ± 0.16 for the first, 0.143 ± 0.085 for the second.

Going from EESQDIKALQKELKQFAKLLKQKRITLGYTQADVGLTLGVLFGKVFSQTTICRFEALQLSFKNMCKLRPLLQKWVEEAD [E14K] to EESQDIKALQKYLEQFAKLLKQKRITLGYTQADVGLTLGVLFGKVFSQTTICRFEALQLSFKNMCKLRPLLQKWVEEAD [E12Y], the abundance fitness falls from 0.267 ± 0.14 to -0.4 ± 0.31.

EESQDIKALQKWLEQFAKLLKQKRITLGYTQADVGLTLGVLFGKVFSQTTICRFEALQLSFKNMCKLRPLLQKWVEEAD [E12W] and EESQDIKALQKEEEQFAKLLKQKRITLGYTQADVGLTLGVLFGKVFSQTTICRFEALQLSFKNMCKLRPLLQKWVEEAD [L13E] are within error of each other in abundance fitness: -0.226 ± 0.1 for the first, -0.484 ± 0.39 for the second.

Compared with EESQDIKALQKEWEQFAKLLKQKRITLGYTQADVGLTLGVLFGKVFSQTTICRFEALQLSFKNMCKLRPLLQKWVEEAD [L13W], EESQDIKALQKEFEQFAKLLKQKRITLGYTQADVGLTLGVLFGKVFSQTTICRFEALQLSFKNMCKLRPLLQKWVEEAD [L13F] is higher in abundance fitness: -0.58 ± 0.19 for the first, -0.149 ± 0.14 for the second.

Going from EESQDIKALQKEMEQFAKLLKQKRITLGYTQADVGLTLGVLFGKVFSQTTICRFEALQLSFKNMCKLRPLLQKWVEEAD [L13M] to EESQDIKALQKEGEQFAKLLKQKRITLGYTQADVGLTLGVLFGKVFSQTTICRFEALQLSFKNMCKLRPLLQKWVEEAD [L13G], the abundance fitness falls from 0.021 ± 0.17 to -0.708 ± 0.23.

EESQDIKALQKEIEQFAKLLKQKRITLGYTQADVGLTLGVLFGKVFSQTTICRFEALQLSFKNMCKLRPLLQKWVEEAD [L13I] and EESQDIKALQKENEQFAKLLKQKRITLGYTQADVGLTLGVLFGKVFSQTTICRFEALQLSFKNMCKLRPLLQKWVEEAD [L13N] are within error of each other in abundance fitness: 0.099 ± 0.27 for the first, -0.252 ± 0.19 for the second.

EESQDIKALQKECEQFAKLLKQKRITLGYTQADVGLTLGVLFGKVFSQTTICRFEALQLSFKNMCKLRPLLQKWVEEAD [L13C] and EESQDIKALQKEPEQFAKLLKQKRITLGYTQADVGLTLGVLFGKVFSQTTICRFEALQLSFKNMCKLRPLLQKWVEEAD [L13P] are within error of each other in abundance fitness: -0.806 ± 0.31 for the first, -0.306 ± 0.45 for the second.

EESQDIKALQKEQEQFAKLLKQKRITLGYTQADVGLTLGVLFGKVFSQTTICRFEALQLSFKNMCKLRPLLQKWVEEAD [L13Q] and EESQDIKALQKESEQFAKLLKQKRITLGYTQADVGLTLGVLFGKVFSQTTICRFEALQLSFKNMCKLRPLLQKWVEEAD [L13S] are within error of each other in abundance fitness: -0.641 ± 0.34 for the first, -0.743 ± 0.25 for the second.

EESQDIKALQKEAEQFAKLLKQKRITLGYTQADVGLTLGVLFGKVFSQTTICRFEALQLSFKNMCKLRPLLQKWVEEAD [L13A] and EESQDIKALQKEHEQFAKLLKQKRITLGYTQADVGLTLGVLFGKVFSQTTICRFEALQLSFKNMCKLRPLLQKWVEEAD [L13H] are within error of each other in abundance fitness: -0.526 ± 0.22 for the first, -0.176 ± 0.19 for the second.

First: EESQDIKALQKEVEQFAKLLKQKRITLGYTQADVGLTLGVLFGKVFSQTTICRFEALQLSFKNMCKLRPLLQKWVEEAD [L13V]
Second: EESQDIKALQKEREQFAKLLKQKRITLGYTQADVGLTLGVLFGKVFSQTTICRFEALQLSFKNMCKLRPLLQKWVEEAD [L13R]
The abundance fitness of the first is higher: -0.228 ± 0.14 for the first, -1.06 ± 0.35 for the second.

Variant EESQDIKALQKEYEQFAKLLKQKRITLGYTQADVGLTLGVLFGKVFSQTTICRFEALQLSFKNMCKLRPLLQKWVEEAD [L13Y] has an abundance fitness of -0.527 ± 0.24.
